Measurements from the supplement of paper PMC12042874.
± gives the uncertainty stated by the source.

Experiment: amyloid nucleation score (Sup35N fusion, yeast selection) (log enrichment); library NNK2; higher = more nucleation; inactive = no reads after selection
Summary of the method: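 Growth for 7 days at 30°C on medium lacking adenine and uracil followed a 24-hour induction with 100 μM copper sulfate of psi-negative yeast expressing peptides of 20 random codons fused to Sup35N. Input and output plasmid inserts were sequenced with Illumina, and sequences with under 100 input reads were excluded. Nucleation score is the DiMSum log enrichment of output over input reads, centred on the mode score of non-aggregating sequences.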

| Substance | amyloid nucleation score |
| --- | --- |
| VTLNTVDFPTGICKSSGARW | -0.236 ± 0.42 |
| VTLSGYRVPLTLWDFGRCLC | -0.565 ± 0.35 |
| VTQRWLAFERWKLPCSLPSH | 0.02 ± 0.79 |
| VTRSVSPHSSPYAFYYFNIS | inactive |
| VTVTFIAEHSIWPSVNNCFV | 1.71 ± 0.15 |
| VTVTYLWIC | 1.88 ± 0.28 |
| VVAKAGRSKFSGCSRATAGG | 0.609 ± 0.41 |
| VVAMDRCLQPVFLHLLSNNF | inactive |
| VVAPTKLLFKLPMALYVFVG | -0.299 ± 0.34 |
| VVKRARLSWPFIARKYTSMV | 0.116 ± 0.4 |
| VVLTAVHFQCLLTLTVPIEV | -0.158 ± 0.48 |
| VVQFSNGDLLILTGCPNTSK | 0.449 ± 0.8 |
| VVRKRSKMKLRRIHFSWLVW | 0.744 ± 0.26 |
| VVSSSTSFTAGTRVM | inactive |
| VVTLDRGLGHNRKGIQLGFR | 0.547 ± 0.81 |
| VVVNNGTGKVPFDDM | -0.952 ± 0.42 |
| VVYSSRLRSDA | 1.12 ± 0.4 |
| VVYVVHFYFEYVGNVVARAK | inactive |
| VWCAYWKWLNLSRFNEITAR | -0.202 ± 0.23 |
| VWGWD | -0.517 ± 0.78 |
| VWIAKKGQRSRFQLRSGMCA | 0.641 ± 0.74 |
| VWQSYRFEEYFCICFQLASA | 7.923 ± 0.031 |

| Substance | amyloid nucleation score |
| --- | --- |
| VWRPRTFLLIHYVVKDKRTP | -0.507 ± 0.79 |
| VWRTGRGYGRMWFLHISSMY | -0.207 ± 0.34 |
| VWSPYKTV | -0.101 ± 1.1 |
| VWYFIDFGPRKISVITWRYS | -0.642 ± 0.78 |
| VWYYGSRKCHAVYLRNRMSV | -0.192 ± 0.41 |
| VYAVDTTW | 0.237 ± 0.29 |
| VYFDNGISK | -1.6 ± 1.1 |
| VYGYDKISHFVHSMNSNIVW | inactive |
| VYIVHVPSQFWL | 6.37 ± 0.08 |
| VYMCFSPVVNIMTVISFLAR | 5.23 ± 0.093 |
| VYMGEELVLVISVKDR | inactive |
| VYMSQWSKVFALFALNFKVN | 1.84 ± 0.2 |
| VYNLN | -0.181 ± 0.41 |
| VYTLIIDW | -1.44 ± 0.78 |
| VYWTKWGFLLVSSVKVLSLE | -0.14 ± 1 |
| VYYAGSK | -0.562 ± 1.1 |
| WAGRDHFWNIIYLDLSFVGE | 3.77 ± 0.12 |
| WAKSFHTALWASLMRGRKLH | -0.44 ± 0.54 |
| WASFW | -0.725 ± 0.45 |
| WCCLYDYFVDTGVLFIQDGS | -0.186 ± 0.2 |
| WCGYCLTFLFPAQKQEAVLR | 0.218 ± 0.35 |
| WCKLDWLIWGIEQRP | 0.063 ± 1.1 |

| Substance | amyloid nucleation score |
| --- | --- |
| WCLLAIFSYCNDPLVLIARR | 2.26 ± 0.12 |
| WCNALFDWMLVAVCGGYYVY | -0.502 ± 0.37 |
| WCSKKPDEFLTINAFRYWED | -0.736 ± 0.34 |
| WCSSKSLADSGRVMGANVYI | -1.02 ± 0.78 |
| WDHLFASFFFLPLMLYGRYY | inactive |
| WDLLHYFDLF | 0.232 ± 0.56 |
| WEIYIGTLTIKWLFTMDRLV | -0.133 ± 0.23 |
| WERMFRPHIFVLFSSGQLSS | 5.01 ± 0.052 |
| WFACYMRIAGTGQEVMYVTM | 0.424 ± 0.24 |
| WFCVRVA | -0.13 ± 0.37 |
| WFFKTAMWVITT | 0.081 ± 1.1 |
| WFMEILFVV | -0.383 ± 0.26 |
| WFMFCNLGLGTPIGMITLRS | -1.16 ± 0.56 |
| WFRRQSLGWVRANGPVMRIS | 0.035 ± 0.34 |
| WFRYNCHDFSLTNPWRHHNL | 0.507 ± 0.52 |
| WGADSYYMCTKLLGSDCGSN | 0.453 ± 0.66 |
| WGCQLRSMQTMTRHR | 0.949 ± 0.74 |
| WGEVRLCESMVCCLGRIQGR | 4.1 ± 0.063 |
| WGWKYMLEELN | -0.177 ± 0.55 |
| WHFSLTMFRSERVNVLTASD | 1.04 ± 0.27 |
| WHNYSYSRGIRRCHQMKHKR | 1.46 ± 0.15 |
| WHQVRPARV | 1.17 ± 0.3 |

| Substance | amyloid nucleation score |
| --- | --- |
| WHTYSRCSFRKRAGSLVAFP | 0.365 ± 0.28 |
| WIMSVGTAKWRDGQPSACRK | 3.46 ± 0.13 |
| WKALAS | 1.74 ± 0.11 |
| WKFSYDFSASASGHHALVNK | 3.22 ± 0.13 |
| WKHMSRR | 0.639 ± 0.66 |
| WKQEYFG | -0.508 ± 0.63 |
| WLGYEEGG | 0.508 ± 0.62 |
| WLNHYAQLIHRARGHVWNMY | -0.685 ± 0.63 |
| WLNLARDWKWKSDINFWKVH | inactive |
| WLNVDYSYSALRLHNCNGLM | 1.64 ± 0.085 |
| WLPLYMFQDQYLLKAPWISS | inactive |
| WLPMYL | 0.194 ± 0.26 |
| WLWNNG | 0.485 ± 0.74 |
| WMLIWYGPRLVYIPDLITLP | inactive |
| WMLWANIDPGDAPYREASAG | 4.06 ± 0.05 |
| WNAHN | -0.081 ± 1.1 |
| WNSIYGLAEMQVCWWFGWGC | -0.628 ± 0.41 |
| WNTIYMSTFVIRDFAIYIKY | 7.53 ± 0.058 |
| WNVMHI | 0.358 ± 0.64 |
| WNYITVDISQLNLPGVAMGW | 3.45 ± 0.097 |
